{"source": "paper PMC9663503", "about": "“Independently evolved viral effectors convergently suppress DELLA protein SLR1-mediated broad-spectrum antiviral immunity in rice” (Nature Communications, 2022)", "biological_target": "T1, GST-SLR1 (rice (Oryza sativa), UniProt Q7G7J6 1-625)", "T1 construct": "SLENDER RICE 1 (SLR1), the rice DELLA protein; 'the cDNAs encoding SLR1'; source: E. coli Rosetta (DE3), purified (GSTrap FF column)", "T1 sequence": "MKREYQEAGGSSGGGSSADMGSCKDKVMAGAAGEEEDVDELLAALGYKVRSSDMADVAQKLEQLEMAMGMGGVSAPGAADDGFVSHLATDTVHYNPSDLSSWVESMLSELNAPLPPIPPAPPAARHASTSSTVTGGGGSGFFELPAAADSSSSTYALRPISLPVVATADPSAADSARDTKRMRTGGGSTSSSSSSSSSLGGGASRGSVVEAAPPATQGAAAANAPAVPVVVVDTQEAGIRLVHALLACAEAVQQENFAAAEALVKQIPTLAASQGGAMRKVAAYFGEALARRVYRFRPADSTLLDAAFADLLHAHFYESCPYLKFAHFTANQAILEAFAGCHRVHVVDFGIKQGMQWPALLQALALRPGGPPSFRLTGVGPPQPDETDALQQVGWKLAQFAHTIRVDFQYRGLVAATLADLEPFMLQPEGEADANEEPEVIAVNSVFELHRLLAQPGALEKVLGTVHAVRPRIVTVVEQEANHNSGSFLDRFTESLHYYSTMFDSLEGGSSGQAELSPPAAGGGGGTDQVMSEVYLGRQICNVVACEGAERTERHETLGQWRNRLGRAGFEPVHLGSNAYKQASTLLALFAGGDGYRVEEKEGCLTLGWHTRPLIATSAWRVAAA", "test": "pull-down; competitive pull-down: GST-SLR1 and MBP-His-OsGID1 with 100 µM GA3, then 10 or 50 µg TF-His-SP8 (or MBP-His-P2), 4 °C about 2 h; GST beads; anti-GST and anti-His blots", "details": "both partners purified", "data": [{"binder": "MBP-His-OsGID1 (receptor, OsGID1, the rice gibberellin receptor GIBBERELLIN … DWARF1; also called PET32a-MBP-His-OsGID1; source: E. coli Rosetta (DE3), purified (Ni-NTA His-trap column)) MAGSDEVNRNECKTVVPLHTWVLISNFKLSYNILRRADGTFERDLGEYLDRRVPANARPLEGVSSFDHIIDQSVGLEVRIYRAAAEGDAEEGAAAVTRPILEFLTDAPAAEPFPVIIFFHGGSFVHSSASSTIYDSLCRRFVKLSKGVVVSVNYRRAPEHRYPCAYDDGWTALKWVMSQPFMRSGGDAQARVFLSGDSSGGNIAHHVAVRAADEGVKVCGNILLNAMFGGTERTESERRLDGKYFVTLQDRDWYWKAYLPEDADRDHPACNPFGPNGRRLGGLPFAKSLIIVSGLDLTCDRQLAYADALREDGHHVKVVQCENATVGFYLLPNTVHYHEVMEEISDFLNANLYY", "values": [{"measurement": "binding result", "result": "binds"}]}]}
